Results on two substances are retold here after US20120065254A1.

This test addresses C5a receptor (CD88) on differentiated U937 cells (UniProt P21730). Briefly: cell-based or functional assay.

Sequence of C5a receptor (CD88) on differentiated U937 cells (P21730 whole entry): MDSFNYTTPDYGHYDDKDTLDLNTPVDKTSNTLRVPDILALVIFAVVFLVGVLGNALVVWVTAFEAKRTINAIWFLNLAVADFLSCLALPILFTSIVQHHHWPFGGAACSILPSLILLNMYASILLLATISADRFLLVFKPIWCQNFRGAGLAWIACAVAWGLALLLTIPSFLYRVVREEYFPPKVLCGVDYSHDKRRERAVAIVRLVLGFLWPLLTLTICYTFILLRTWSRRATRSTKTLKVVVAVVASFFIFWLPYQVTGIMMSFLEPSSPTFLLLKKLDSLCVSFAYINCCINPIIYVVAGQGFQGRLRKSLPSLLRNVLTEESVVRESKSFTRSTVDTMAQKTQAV

Consider “His6-tagged monkey C5a (His6-macC5a) (ligand)”, for which the chemotactic response of U937 cells came out at 0.8 nM. “recombinant human C5a (from UniProt P01031 678-751) (ligand)” gave a chemotaxis of U937 cells, maximal effective concentration of 1 nM.
